Data from US20140107039A1 (ROCKEFELLER UNIVERSITY, published 2014).

Target: Polycomb Repressive Complex 2 (PRC2), purified through FLAG-tagged human EED from HeLa or HEK293T nuclear … (human, UniProt O75530 1-441; Q15910 1-746)
Test: cell-based or functional assay

Chain of Polycomb Repressive Complex 2 (PRC2), purified through FLAG-tagged human EED from HeLa or HEK293T nuclear … (O75530 whole entry, chain 1 of 2): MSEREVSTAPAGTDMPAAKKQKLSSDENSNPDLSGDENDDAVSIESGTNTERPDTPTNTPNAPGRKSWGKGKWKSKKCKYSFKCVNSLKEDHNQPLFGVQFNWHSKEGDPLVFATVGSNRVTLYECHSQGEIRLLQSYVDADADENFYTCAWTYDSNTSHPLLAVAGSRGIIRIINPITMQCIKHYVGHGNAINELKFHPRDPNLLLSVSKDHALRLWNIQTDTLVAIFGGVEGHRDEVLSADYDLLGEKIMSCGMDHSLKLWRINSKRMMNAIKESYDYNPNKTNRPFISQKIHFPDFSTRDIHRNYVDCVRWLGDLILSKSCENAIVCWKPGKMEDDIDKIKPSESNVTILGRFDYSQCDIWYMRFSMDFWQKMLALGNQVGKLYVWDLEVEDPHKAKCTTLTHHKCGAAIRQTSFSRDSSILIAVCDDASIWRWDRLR
Chain of Polycomb Repressive Complex 2 (PRC2), purified through FLAG-tagged human EED from HeLa or HEK293T nuclear … (Q15910 whole entry, chain 2 of 2): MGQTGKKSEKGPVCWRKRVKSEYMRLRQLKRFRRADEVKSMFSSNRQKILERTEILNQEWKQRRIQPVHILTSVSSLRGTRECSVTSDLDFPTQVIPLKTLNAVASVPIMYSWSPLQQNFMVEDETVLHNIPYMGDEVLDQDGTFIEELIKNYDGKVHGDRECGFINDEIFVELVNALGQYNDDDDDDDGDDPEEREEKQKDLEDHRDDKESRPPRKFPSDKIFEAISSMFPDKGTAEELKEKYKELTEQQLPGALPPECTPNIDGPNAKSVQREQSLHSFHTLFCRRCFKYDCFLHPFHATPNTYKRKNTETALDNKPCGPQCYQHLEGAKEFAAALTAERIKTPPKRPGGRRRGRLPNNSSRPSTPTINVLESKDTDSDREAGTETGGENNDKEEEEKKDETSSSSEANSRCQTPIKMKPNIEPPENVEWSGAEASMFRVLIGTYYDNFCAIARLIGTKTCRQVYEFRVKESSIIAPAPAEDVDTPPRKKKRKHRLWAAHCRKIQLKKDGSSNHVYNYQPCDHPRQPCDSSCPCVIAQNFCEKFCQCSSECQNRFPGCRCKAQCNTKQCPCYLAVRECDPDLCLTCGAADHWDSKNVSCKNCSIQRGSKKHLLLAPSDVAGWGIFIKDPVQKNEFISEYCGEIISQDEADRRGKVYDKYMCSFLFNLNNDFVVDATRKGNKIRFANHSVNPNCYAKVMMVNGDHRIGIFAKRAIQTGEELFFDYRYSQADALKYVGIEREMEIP

- IC50, in vitro PRC2 methylation reactions: 8.9 µM
B1: H3 peptide (18-37) with Lys27 replaced by Ile (peptide)
peptide: KQLATKAARISAPSTGGVKK
